Results reported in paper PMC5339802 (2017).

T1: FITC-labeled MyoVa-GTD (human, UniProt Q9Y4I1 1448-1855, fluorescein isothiocyanate (FITC) label, site not stated)
T1 chain: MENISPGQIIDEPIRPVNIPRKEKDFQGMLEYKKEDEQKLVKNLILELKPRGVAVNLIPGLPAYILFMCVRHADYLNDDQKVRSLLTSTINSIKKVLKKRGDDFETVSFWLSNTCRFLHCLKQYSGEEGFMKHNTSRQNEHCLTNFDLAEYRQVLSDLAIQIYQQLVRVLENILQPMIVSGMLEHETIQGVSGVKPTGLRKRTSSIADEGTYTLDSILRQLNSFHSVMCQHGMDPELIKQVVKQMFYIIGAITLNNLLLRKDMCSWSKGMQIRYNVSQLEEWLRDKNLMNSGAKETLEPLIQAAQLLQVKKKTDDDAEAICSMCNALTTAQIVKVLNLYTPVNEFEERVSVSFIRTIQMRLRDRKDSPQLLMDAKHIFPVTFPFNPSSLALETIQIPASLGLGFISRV


How the values were obtained:
FITC-labeled MyoVa-GTD [1] = target: T1, FITC-labeled MyoVa-GTD; experiment: MST; 300 nM FITC-labeled MyoVa-GTD, serial dilution of RPGRIP1L-C2 domains; 50 mM HEPES, 150 mM NaCl, 5% glycerol, 0.05% tween-20, pH 7.2; Monolith NT.115, LED power 20%, MST power 60%; triplicate
FITC-labeled MyoVa-GTD [2] = target: T1, FITC-labeled MyoVa-GTD; experiment: MST

| Kd (FITC-labeled MyoVa-GTD [1]) [µM] | Kd (FITC-labeled MyoVa-GTD [2]) [µM] | Molecule |
| --- | --- | --- |
| 3 to 9 |  | RPGRIP1L-C2 domains |
|  | 3.8 | RPGRIP1L-C2_(CTERM) domain, purified, GST removed (domain or fragment) MQQGKDDVSLLSEGQLAEQSLASSEDETEITEDLEPEVEEDMSASDSDDCIIPGPISKNIKQPSEKIRIEIIALSLNDSQVTMDDTIQRLFVECRFYSLPAEETPVSLPKPKSGQWVYYNYSNVIYVDKENNKAKRDILKAILQKQEMPNRSLRFTVVSDPPEDEQDLECEDIGVAHVDLADMFQEGRDLIEQNIDVFDARADGEGIGKLRVTVEALHALQSVYKQYRDDLEA |
|  | 8.9 | RPGRIP1L-C2MED domain, purified, GST removed (domain or fragment) STDSTDGNLNELHITIRCCNHLQSRASHLQPHPYVVYKFFDFADHDTAIIPSSNDPQFDDHMYFPVPMNMDLDRYLKSESLSFYVFDDSDTQENIYIGKVNVPLISLAHDRCISGIFELTDHQKHPAGTIHVILKWKFAYLPPSGSITTE |
|  | 2.8 | RPGRIP1L-C2_(NTERM) domain, purified, GST removed (domain or fragment) RIHKLEAQLKDIAYGTKQYKFKPEIMPDDSVDEFDETIHLERGENLFEIHINKVTFSSEVLQASGDKEPVTFCTYAFYDFELQTTPVVRGLHPEYNFTSQYLVHVNDLFLQYIQKNTITLEVHQAYSTEYETIAACQLKFHEILEKSGRIFCTASLIGTKGDIPNFGTVEYWFRLRV |
